Data: the DeepSol protein solubility set

Assay: soluble on expression in E. coli; label from the status in PepcDB or PDB records
For “AGMELVGWLVDKGITSEKQWIQEDQASYISFNAASNSRSQIKAALDNAGKIMSLTKTAPDYLVGQQPVEDISSNRIYKILELNGYDPQYAASVFLGWATKKFGKRNTIWLFGPATTGKTNIAEAIAHTVPFYGCVNWTNENFPFNDCVDKMVIWWEEGKMTAKVVESAKAILGGSKVRVDQKCKSSAQIDPTPVIVTSNTNMCAVIDGNSTTFEHQQPLQDRMFKFELTRRLDHDFGKVTKQEVKDFFRWAKDHVVEVEHEFYVKKGG”, the “soluble on expression in E. coli” value was “soluble”. For “MKTVLLTGFDPFGGESINPAWEVAKSLHEKTIGEYKIISKQVPTVFHKSISVLKEYIEELAPEFIICIGQAGGRPDITIERVAINIDDARIADNEGNQPVDVPVVEEGPAAYWSTLPMKAIVKKLQEEGIPASVSQTAGTFVCNHLFYGLMHELEKHDTKMKGGFIHIPFLPEQASNYPGQPSMSLSTIRKGIELAVEVTTTVEVDIVEVGGTTH”, the “soluble on expression in E. coli” value was “soluble”. In the case of “MKNTQFALFMVLNGRATEALTFYQEAFAGDILFKITNQEFKERLNPSLTIPAGEEHWLSHSILQMDTFQLQLADNPLFAGMNTTPTEQLTLSLTVNSRHSAKTIFEKLTCHPESCIIQEPIENEFATFYAIVKDPFGLVTQITHEKQADPTKKGS”, the “soluble on expression in E. coli” value was “not soluble”. With “MRRSLVVAVMAIMPMVGLANQNSRPDIQVNVPPEVFSTRGQSSQPCIQCCVYQDQNYSEGAVIKVEGVVLQCQRDEKTISTNPLVWRRVKPLEHHHHHH” the “soluble on expression in E. coli” value was “not soluble”. For “MSPVSARFEPAALRPDLARIAGWIEPGSRVLDLGCGDGALLAYLRDHRQVRGAGVEIDDNYVIACVQRGVEVIQQNLEDGLALFDDQQFDTVVLSQTLQSMHRTEHILREMARVARHGVVSFPNFGYWPHGWSILRGRMPVTGQMPYQWYNTPNIHLCTLRDFEDLAGTLGLRILQRATFNEGREVRVFPSWRSTLALYRFAASLEHHHHHH”, the “soluble on expression in E. coli” value was “not soluble”. For “AAWLQRKQFVSAGQEVAARLNTLGAELTQSRNDMREALALAQAQSGKVAELEGKVREAQSQYSALQQALQNLNDGASDEMLANDIERLITIASQQLRLAGNVSNAIVALETAQARLARADRPRFASLQQSINGDLDRLRAVGVVDIAAQSARIDRLVALVGRAPLLVPDAAAPGVTAVPQANEAVPASVDPGADLPADAAWWQRWQAEIASWPGRAGSALAHELGDLIRVQRVDQPTALLLSPEQAGQLRSTLRQRLLTAQLSMLMRQPAVWKSELDAVAATLAQYFDGKAPDTVAALALARELGQVEIAVRVPDVADSLNGIAALRAAGFNADG”, the “soluble on expression in E. coli” value was “not soluble”. With “MNPQTDNVFYATNAFTGEALPLAFPVHTEVEVNQAATAAAKVARDFRRLNNSKRASLLRTIASELEARSDDIIARAHLETALPEVRLTGEIARTANQLRLFADVVNSGSYHQAILDTPNPTRAPLPKPDIRRQQIALGPVAVFGASNFPLAFSAAGGDTASALAAGCPVIVKGHTAHPGTSQIVAECIEQALKQEQLPQAIFTLLQGNQRALGQALVSHPEIKAVGFTGSVGGGRALFNLAHERPEPIPFYGELGAINPTFIFPSAMRAKADLADQFVASMTMGCGQFCTKPGVVFALNTPETQAFIETAQSLIRQQSPSTLLTPGIRDSYQSQVVSRGSDDGIDVTFSQAESPCVASALFVTSSENWRKHPAWEEEIFGPQSLIVVCENVADMLSLSEMLAGSLTATIHATEEDYPQVSQLIPRLEEIAGRLVFNGWPTGVEVGYAMVHGGPYPASTHSASTSVGAEAIHRWLRPVAYQALPESLLPDSLKAENPLEIARAVDGKAAHS” the “soluble on expression in E. coli” value was “soluble”. With “MAHHHHHHMKLPYAKLEKHSRPVRCVHAEYGCTMLFCSVRCRQAGWSRFHFAGCPGAMMSDQRDAYDEFIHHDWEYRGVDYSDTVFLAFRFVCMAVTNIRLHRQSLELAYRPIAQLIKAPLSFFHFTYLFYREEADSTEKKGRGEKQIEKLRLIRWEAFRKFRATHMSTTENDTTDDFLATGMTLLGRILRFTQEECTLFTVARWSELLGAVLLNGQERSPPSNYDRLKELVRRLPCGESTMDAFEQEVQMAGNELQHLRQSSRGQGVYTVGCLFNHSCEPNLQVVYSESGDETLSVVALRDIEPGEELCISYIDESLSYPERQQELYEHYLFFCQCPKCEREAAAWEPIEPCEEVLSSAYTFSQLY” the “soluble on expression in E. coli” value was “not soluble”. In the case of “GLEVDNNSLLRNIYSTIVYEYSDIVIDFKTSHNLVTKKLDVRDARDFFINSEMDEYAANDFKTGDKIAVFSVPFDWNYLSKGKVTAYTYGGITPYQKTSIPKNIPVNLWINGKQISVPYNEISTNKTTVTAQEIDLKVRKFLIAQHQLYSSGSSYKSGRLVFHTNDNSDKYSFDLFYVGYRDKESIFKVYKDNKSFNIDKIGHLDIEIDS”, the “soluble on expression in E. coli” value was “soluble”. With “MSLAGDDAVNLTLVTGAPANGGSCVAHHEGRVVFVRYALPGERVRARVTAQRGSYWHAEAFEVIDPSPDRIGSLCSIAGADGAGCCDLAFAAPEAARTLKAQVVANQLERLGRHSWQGEAQPLSDAGPTGWRIRVRLDVGADRRPGFHRYHSGELVTDLDCGQLPVGMLDGLVAADWPPEAQLYVALDDDGERHVVCSVRQGPRNRTRTVTNVVEGAYHAHQRVHRRSWRVPVTAFWQAHRDAAAVYSDLIADWAQPAPGMTAWDLYGGAGVFAAVLGEAVGESGRVLTVDTSRLASGAARAALVDLPQVEVVTGSVRRVLAVQPAGADLAVLDPPRSGAGREVVDLLAGAGVPRLIHIGCEAASFARDIGLYRGHGYAVEKIKVFDAFPLTHYVECVALLTRKVEGHHHHHH” the “soluble on expression in E. coli” value was “soluble”. For “MAPKDQAADMDYDQTKKMVVDILKTDDGKKAIKELLNDDAMNEALVIDQDAIKGTIEKTLTSKKGEEFWKNIFEDTDFAEGFAKTLQTEHEKVIKKLMKDPDYQKMLMSVMQDPGMDKKYSQLAKSQEFRSYLEEVINETLSSPLYKKQFEDELKKAAKDTAKESELEHHHHHH”, the “soluble on expression in E. coli” value was “soluble”. For “MGSDKIHHHHHHMRRPRRPQDFLEYEKVLKFKESEKQIEETETKGDVRVALVVPSGYEVAASGLAFHYVQKLLNSHPRIRCERFFYDETFKKFYSLETQTPIDEFPIWLFSVSFENDFSNLLDILKKKDVPLSWKEREDYHPLIIIGGAVTYLNEEFLIPVADAVYYGELEKYLDLFTEALTGETKQEILSSLSRIPSVEVPSLKEHSEIATGVDLNDFLPHSSVVPSRGVFPGKLLVEVGRGCIRRCAFCIFGKNLKPARFVKPERFEELVKNTPYSEYGLISATITDYPWLEDLLDTVEKYQLKISVSSLRLDRLSERLLRTLKDSGQRSFTIAPEAGSQRIRDILKKDITDEQIENALKLARKLDFDRVKMYFIYGLEEETEEDLEAFKKLGDLAVRLGYREVHMSFNPLIPKPGTEFERRKMEPVDVLRKKEKILKNLLKGFRVDFESIRESVVQYTIAHAGKEEVESWLKFFEKSDKKLLGKLIYEEGRKRLC”, the “soluble on expression in E. coli” value was “not soluble”. In the case of “MGSDKIHHHHHHMNIINFIKNYLSTPMSSLTFAPAHQLARMIRNREVSAVEVLNAYLAQIAKHNSKLNAICTLDEENAYLRARLADEALARGENWGALHGVPITIKDIFETAGLLTTAGYIPLKDYVPQQDATVVARLRTAGAVILGKTNMAELAGDYQSTNSLFPQVNNPWNLDYTAGGSSGGSAAAVAAGLSSLDLGNDIAGSVRQPAHFCGVYGLKPTDRRISTAGQIPEVPGMPVCLRQMMTVGCFARSLEDIRLCFSLIAGSDLRRPDVPPIPLDNPSGKSLQNLKIAWLDEWVEVPVASEIQVAMTAIAHTLTQAGVQIEPWLPKNFDLSKTLNLYGRMAAYINIYAQPVDRYNLHRSWQQIFRTATQGEKELRKLGDFSRLLPDLLNPRLKGYFEVLTERDCFTAQMDEALEPWDAWLTPVAATPAFTHRPAWSAIEIDGRPYPHAVANGAYTMPFNLSGHPAVVIPIGHTQDGLPIGMQVVGKRWREMELLAIAQELDKVINAFRSPFEII”, the “soluble on expression in E. coli” value was “not soluble”. With “MGSDKIHHHHHHSNPTRSIPATDAVSSATAGKKMGLQTYSLGQELLQDMPNGLNRLAKAGYTDLEIFGYREDTGKFGDYNPKNTTFIASKDYKKMVDDAGLRISSSHLTPSLREYTKENMPKFDEFWKKATDIHAELGVSCMVQPSLPRIENEDDAKVVSEIFNRAGEITKKAGILWGYHNHSNEFKRVLKAGEKPEQNPNPWAPPKGTYIEELFLKNTDPDKVMFELDVYWAVMGQQDPVEWMENYPNRFKLLHIKDRWIIGDSGMMNFPNIFKKAYEIGILGYYVELEGDKKGRTQFEGVEKSAAYLQAAPFVK” the “soluble on expression in E. coli” value was “not soluble”. For “MGSDKIHHHHHHMSVTQIVTSEDILLKLCHSVSHVLSHTSGSRVTHAAMVQNISSTRLKPDLGCFSIFDGGFSGLVVINFSAASAVEIYRRYMLNMGMPESDLAFSHNSDEVGNVMGELMNQILGDFIGKVSKELQTSISQSQPKMLTINKEITISIDANLDEPVIRRVSFMTESNHIFYLEFAMDKTEFVKTREFELDEEFDPDFLIEQHGNTRSPWSQMAGKGIVADDADDLLDELGI”, the “soluble on expression in E. coli” value was “not soluble”. For “MQMYLADCIFPDIEGQLAAYKSFCELWDSGEMAKLDNFDGFQMLFRVHAPGAGRVTILFKAESDAQIFEAFAPWRAQFGIEMDFTPVIGCQDVVDYHKKLFAKMS”, the “soluble on expression in E. coli” value was “not soluble”. In the case of “MGSDKIHHHHHHMAHHHGMRFPTPLIPATLIKRYKRFLADCRLEDGREITAHCANPGSMMGLAEPGMRVWLEPNDDPKKKLKYGWRLVEHTNGHFTGVDTSVPNRALKAALEAHEIAEFAAYSEVQAEVKYGQNSRIDFLLTDAKLPRCYVEVKSVTLSRQPGLAEFPDSVTARGTKHLRELAAMAEAGHRAVMLYLVQRTDCDRFALAADIDPAYAAEFETAHAKGVERLVIGTTITPEGVKIGDILPS”, the “soluble on expression in E. coli” value was “not soluble”. With “MKVDLFDFHLPEELIAQTPLPDRAASRLMVLDKRTGAIRHETFRNIISYLNPGDCLVLNDTRVMPARLYGEKEETGGTVEVLLLKQLDGDRWETLVKPGKRVKPGTKLTFGGGKLEAVCLDTLEHGGRVLEFSYDGLFYEVLAELGEMPLPPYIKEKLDDPERYQTVYAREIGSAAAPTAGLHFTEELLDAIREKGVHIVFITLHVGLGTFRPVQVDEVEKHDMHAEFYQMSEETAETLNRVREQGGRIIAVGTTSTRTLETIAGKHNGRFVAESGWTDIFIYPGYEFKGIDGLVTNFHLPKSTLIMLVSALAGRENILHAYQVAVKERYRFFSFGDAMLII” the “soluble on expression in E. coli” value was “not soluble”. In the case of “LYGYYCMQEEEQLVYWYSGLYLQPQHFQSIDLHHGFMLARSRQLSQPHHQGYYECCINDDLLKEDTVRVEKIKAVLSSGYYIEYPGNCVVQDKCLTNLKGSDHGTVDLWLALKRFNSGHKNVSSVNDKRGSARWISSDDERNMRNVYHDSQDADITRIKYDIQILTDEEKDNTTDYEYLPLTRIIYGNNSLCIDDECSFPVMRLSANHKLRNKIAEIYSDIKFYKNRLEKYRYTERTVSDGHLYNFLILCAINRTLPLLSSFINEDAIHPWLYYMALCQFAGEISTFHNSGLSDTRIVELSYNHYEQISCFSDLQYYIKLILDDSCRDKIISVEFRKITTDTLICNFDEYGAGSNSDYYIKLTSDTFRKNKLIALPEIKIAPSEHIDMIIQHALPGIKFTVMDAVTSDLQVRENTIWLKIDKHSELWTLAQTQKRVAFYWSCSPDDLLVELVLSQEKYAVSRPKQDNGSFHPAVGR”, the “soluble on expression in E. coli” value was “not soluble”. With “MSLKAIVYKGPKMLEVVEIDKPIPKEGQVLVKVNRAGICGGDLGIYKGTHPRAKAPLVFGHEFSGVVEEDGKIFKKGTKVTVNPIYSCGDCVPCNSGDQHVCNTLRLVGIDRDGAMSEYVVVDENKLYELGDEMSDELGALIEPIAVAVHSVREPGYKPGDNAVVFGGGPIGLAIAFVLKKFGCTNLTIIEADDKRIAMGKDFGFDLRDAKGLDLEALKAEKTGGNGFDFVFDCAGVEPVAAQLIKASKVRGKIVIVAGYKTPTMFPVNEGMFKEVAFEFVRVYRDKDYEIAVELAKDEPMFEKLVTHVLPVEQAQEGFDLLLTPGTGAMKVLFKEGHHHHHH” the “soluble on expression in E. coli” value was “not soluble”.
